The target in experiment [1] is T1, recombinant human CD27-FLAG-HIS (human, UniProt P26842 20-191).
T1 sequence: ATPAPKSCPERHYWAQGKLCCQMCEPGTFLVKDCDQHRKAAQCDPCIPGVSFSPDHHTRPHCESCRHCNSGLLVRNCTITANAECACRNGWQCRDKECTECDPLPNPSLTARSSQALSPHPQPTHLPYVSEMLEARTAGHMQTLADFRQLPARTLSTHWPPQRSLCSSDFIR
The experiment can be described thus: ELISA, plate coated with recombinant human CD27-FLAG-HIS. Here is the method: Microtiter plates were coated with recombinant human CD27-FLAG-HIS in PBS, and then blocked with 5% bovine serum albumin in PBS. Protein A purified human monoclonal antibodies were added at various concentrations and incubated at 37° C. The plates were washed with PBS/Tween and then incubated with a goat-anti-human IgG Fc-specific polyclonal reagent conjugated to horseradish peroxidase at 37° C. After washing, the plates were developed with HRP substrate, and analyzed at OD 450-650 nm using a microtiter plate reader.
Background: ELISA stands for enzyme-linked immunosorbent assay.

In experiment [2] the target is T2, human CD27 on the cell surface (Ramos cells, human CD3+ T cells, CD27 reporter cell line) (human, UniProt P26842 20-260).
T2 construct: also called CD27 on cells
T2 sequence: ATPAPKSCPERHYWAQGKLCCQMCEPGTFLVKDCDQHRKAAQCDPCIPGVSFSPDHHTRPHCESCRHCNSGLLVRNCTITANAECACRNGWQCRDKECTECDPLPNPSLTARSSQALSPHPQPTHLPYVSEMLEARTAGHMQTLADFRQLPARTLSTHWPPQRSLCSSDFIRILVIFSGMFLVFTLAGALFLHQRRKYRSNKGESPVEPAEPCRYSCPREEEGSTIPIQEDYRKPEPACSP
The experiment can be described thus: flow cytometry, Ramos cells expressing human CD27, antibody 3 µg/ml. The protocol: Antibodies were tested for binding to a human cell line expressing human CD27 on their surface. Protein A purified human monoclonal antibodies (3 μg/ml) were incubated with Ramos cells expressing human CD27 at room temperature on a plate shaker. After 20 minutes, the cells were washed with PBS containing 0.1% BSA and 0.05% NaN₃ (PBA) and the bound antibodies were detected by incubating the cells with a PE labeled goat anti-human IgG Fc-specific probe. The excess probe was washed from the cells with PBA and the cell associated fluorescence was determined by analysis using a FACSCanto II™ instrument (BD Biosciences, NJ, USA) according to the manufacturer's directions.
(In general: Flow cytometry measures light scatter and fluorescence of single cells or particles in a stream.)

The target of experiment [3] is T1, recombinant human CD27-FLAG-HIS. The experiment can be described thus: bifunctional ELISA generally as in Example 16 (CD27-FLAG-HIS coated, PD-L1-msFc detected). Here is the method: Binding of bispecific constructs to CD27 and PD-L1 was assessed using a bifunctional ELISA. Antibody AbX is a known anti-PD-L1 monoclonal antibody. In brief, a microtiter plate was coated with human CD27-FLAG-HIS. Dilutions of the bispecific constructs were allowed to bind before adding human PD-L1-msFc that was detected with an HRP labeled goat anti-mouse IgG (Fc specific) antibody.

For experiment [4], the target named is T3, full length wild type extracellular domain (ECD) of human CD27 (human, UniProt P26842 21-188).
T3 construct: also called wild type huCD27; ECD of huCD27
T3 sequence: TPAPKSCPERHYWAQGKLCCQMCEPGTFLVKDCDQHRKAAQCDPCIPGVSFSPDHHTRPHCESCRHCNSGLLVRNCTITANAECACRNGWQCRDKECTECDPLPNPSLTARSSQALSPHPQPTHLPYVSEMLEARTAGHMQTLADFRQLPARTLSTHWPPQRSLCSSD
As to the kind of experiment: ELISA, plate coated with wild type CD27 ECD; supernatant of cells expressing mAb 2B3; anti-human IgG Fc-HRP. Here is the method: (§1) The full length wild type extracellular domain (ECD) of human CD27 or human CD27 with mutated amino acids 85, 87, 88, and 89 (A85S, R87A, N88A and G89A; see FIG. 34) were coated to a plate, then blocked. Supernatant from transiently transfected cells expressing mAb 2B3 was added and binding was detected with an HRP conjugated goat anti-human IgG Fc polyclonal antibody.

The target in experiment [5] is T4, human CD27 ECD with mutated amino acids 85, 87, 88 and 89 (A85S, R87A, N88A and G89A) (human, UniProt P26842 21-188).
T4 construct: also called mutated huCD27; mutated CD27 ECD
T4 chain: T3 sequence with A85S, R87A, N88A, G89A
The experiment can be described thus: ELISA, plate coated with mutated CD27 ECD; supernatant of transiently transfected cells expressing mAb 2B3; anti-human IgG Fc-HRP. The protocol:
as §1

Changes are numbered by the printed parent chain.

B1: anti-CD27 human monoclonal antibody 3C2 (antibody, V domains shown)
VH: QAQLQESGPGLVKPSETLSLTCTVSTGSISGYYWSWIRQPPGKGLEWIGYNYYSGSTNYNPSLKSRVTISIDTSKNQFSLKLNSVTAADTAVYYCARYPLIRGAFDYWGQGTLVTVSS
VL: not shown
notes: hybridoma supernatant (rat constant regions) in the cynomolgus CD27 ELISA
For B1, the binding result in experiment [1] and in experiment [2] was “binds” each time.

B2: CDX-527 (9H9×2B3 bispecific antibody: anti-PD-L1 IgG1 9H9 with anti-CD27 2B3 scFv) (bispecific antibody)
heavy: not shown
light: DIQMTQSPSTLSASVGDRVTITCRASQSISGWLAWYQQKPGKAPKLLIYKASSLESGVPSRFSGSGSGTEFTLTISSLQPDDFATYYCQQYYGSSRTFGQGTNVEIKRTVAAPSVFIFPPSDEQLKSGTASVVCLLNNFYPREAKVQWKVDNALQSGNSQESVTEQDSKDSTYSLSSTLTLSKADYEKHKVYACEVTHQGLSSPVTKSFNRGEC
Consider B2, for which the binding result in experiment [3] is given as “binds”.

B3: anti-CD27 human monoclonal antibody 2B3 (antibody, V domains shown)
VH: QVQLVQSGAEVKKPGASVKVSCKASGYTFTGYYIHWVRQAPGQGLEWMGWINPNSGGTNSAQKFQDRVTITRVTSINTAYMELSRLRSDDTAVYFCARDRLVLPWFGEIFPDAFDIWGQGTLVTVSS
VL: EIVMTQSPATLSVSPGERATLSCRASQSIRSNLAWYQQKPGQAPRLLIYGASTRATGIPARFSGSGSGTEFTLTISSLQSENFAVYYCQQYNNWPLTFGGGTKVEIK
notes: In the cynomolgus CD27 ELISA hybridoma supernatants were used (human V regions with rat constant regions); also called mAb 2B3
For B3, the binding result was “binds” in experiment [4], “no binding” in experiment [5], “binds” in experiment [1] and “binds” in experiment [2].

Source of the values: patent publication US20200109207A1 (CELLDEX THERAPEUTICS, published 2020).
